# In the DeepSol protein solubility set:
# Assay: soluble on expression in E. coli; label from the status in PepcDB or PDB records
row,Sequence,soluble on expression in E. coli
1,SLVMKASVDDDDSGWELSMPEKMEKSNTNWVDITQDFEEACRELKLGELLHDKLFGLFEAMSAIEMMDPKMDAGMIGNQVNRKVLNFEQAIKDGTIKIKDLTLPELIGIMDTCFCCLITWLEGHSLAQTVFTCLYIHNPDFIEDPAMKAFALGILKICDIAREKVNKAAVFEEEDFQSMTYGFKMANSVTDLRVTGMLKDVEDDMQRRVKSTRSRQGEERDPEVELEHQQCLAVFSRVKFTRVLLTVLIAFTKKETSAVAEAQKLMVQAADLLSAIHNSLHHGIQAQNDTT,soluble
2,MTKDQNGTWEMESNENFEGYMKALDIDFATRKIAVRLTQTKIIVQDGDNFKTKTNSTFRNYDLDFTVGVEFDEHTKGLDGRNVKTLVTWEGNTLVCVQKGEKENRGWKQWVEGDKLYLELTCGDQVCRQVFKKK,soluble
3,MKRRRKSGEKVQMHRFALPLCYGSEAPYYYYEVAPHEREERFHLTSELCVMDDEHYFIRGCLEIPIIDYHENFIWTVWVSLSKESYDEVLEKWDERGRENSDPYFGWLSVEMPVYPETLNLKTNVHIREVGTAPYVELEPTEHPLAIEQRNGITLERVKEIQEMIQRHS,not soluble
4,MEGTPNVPQAHRYELTLAGRPLVLETGKYAKQASGSVLVRYADTVVLATAQASETPVEADFLPLTVEFEERHYAVGKIPGSFMRREGRPGEKAILSARMTDRPIRPLFPKGFRHEVQIIVTVLSADQKNPPDILGPIAASAALMLSDIPWEGPIAAVRVGLIGGSFVLNPTLQELEESQLDLVVAGSKEAILMVEAEAGEVDEETLVQALEFAHKEMQPILELQEAMARELAKPKMAWTPPESLPEEEKEALYRLALERGLSQVLQTASKGERSRALAEFAERLIAEALPKGEDGTPDEGKKPLYESAFDEVVRRELRRLVLEEGKRADGRGPKDLRPIWIEVDVLPRAHGSAVFTRGETQVLGTVTLGTGRDEQILDDLGIDETEKFLVHYNFPPFSTGEVRRLRGVSRREVGHGNLAKRALKAVMPKEEDFPYTIRVVGDVLESNGSSSMATVCAGCLALMDAGVPIRAPVAGVAMGLVWEENRAVILTDILGLEDALGDMDFKVAGTRKGVTALQMDNKVGGLPREVLKEALLQAREARLKILDLMEAVLPAPRPELKPFAPRILSLKVPVEKIGLVIGPGGKNVRALEELGVEVDIEEDGTVRIYSSDLQAALEAKKRIEDLTREAKVGEIYEGTVTRITPFGAFISLFPGTEGLLHISQIAPGRVARVEDHLKVGDVIKVKVHRIDERGKIDLIRPELEGKIPPRRRR,soluble
5,MLQCYNCPNPTADCKTAVNCSSDFDACLITKAGLQVYNKCWKFEHCNFNDVTTRLRENELTYYCCKKDLCNFNEQLENC,soluble
6,MAVGAPFLYRYSLYNCAYVILNGKVLGIVPKSYIPNYSEFYEKRWFTEGFNIKGLNVDLDFQKEVPFGTDLIFSFKNLKVGFEICEDLWVTIPPSSNLALMGANLICNLSASNELVSKSSYRKSLVQNQSARTMCSYIYSSAGVHESTTDLLFSGHMIIAENGTIIKENNRFKRENDLLTGIVDLFKLDAERIKNISFRNSTFNENNEPRFIPFNLENTEIKNFDREIDKHPFLPKSQYAMEARCEEILNIQAAALAKRLEHTNLKKAVIGISGGLDSTLALLVVVKTFDMLNIPRENIITITMPGFGTTDRTYNNAVTLCKELHCDFREINIVNAALQHFEDIGHDKDIHDVTYENVQARERTQILMDLANKEGGLLIGTGDLSELALGWCTYNGDHMSMYSVNCSIPKTLVRFLVNYFANHEISNDAKEALLDILDTPVSPELEHHHHHH,soluble
7,MGSDKIHHHHHHMNTDSPLKAIQPPADEQAWAVRARRQFEAEQLLYAYVEYIDDDRLEELPELFTEDGSYQIISRENVERGLPAPTMGCSNRNMLIDRIVSLRHANIYSQHAYRHVLSNVRVKAMEGDEALVQSNYVVMATRGDGIARVYSTGKYVDRLVFEEDGPKFKQKRVIFDTQLIDTLLVRPL,not soluble
8,MAHHHHHHMSDTRDVAQPRRGSFASRKARGETGGSKSSSSSSKNKEHSYDARRYHQNANTHGIHALRTFDCPVCDSKNTIRVTLNPRLGEGTVSCTYCCSLRPAPPDLPYPSVQRFVPSLENRADVFFRFNEQYAALLRQHKSERVGESVDPSSCLATVDNTRKRANKDDGESGGRARGPRGESRDEDGLFGDCALHMDTGLFDNAVDQHVTGTLAMLGSDDDGGSNTVADADPGNPKGVSTPSPPRPDGADMPESDFMNVAVIAGVDEAFAAHAADGVDGMGEADAEEVDVAAFFADSD,not soluble
9,MLSKTVFDASQERMEVIFSEFDNIIVSFSGGKDSAVMLHLMIDYIRKNNIQKKIYVYHLDYEGQYSATSDFVAEMLTSNLDIIEPLWCCLPIAAQSAVSMYTDHWIPWEKSKQDIWVREMPDYPSVINEDNAPFDFDFHTIWDYEFNKKLIHWLHTKNKAEKTIALIGIRQQESLNRYNAIHKKERMYKNYNWTTEISKNIYNAYPIHDWLVEDIWTANAKFDWPYNKIYDLFYQAGLTLNDMRVASPFNDSATESLKLYRVIEPALWSKLVGRVNGANFTAIYGGTSAMAWKEINLPPNHTWKSYLEFLLTTLPSYTRERYLKKFKTSINYWTEKGGALKVETVEELKNLNVQADFLGKPQNKRTYSNPMEIVRFKEYPDDLKIKEFASVPTYKRMCIAILKNDYTCKYMGFGQTKLELEKRKHALEKYNNIL,not soluble
10,MKRVISKILKKEKEKEEEVEEKTIGLIIDGPNILRKEFGIKLEDIKKALEKIGKIRVAKVVLNQYAPQGLIEAVVNQGFEPIIVAGDTDVRVAIEAMELIYNTDVDVIALATRDADFLPLISEAKRKGKETVVIGVEPGFSVALQNAADYIIKMEKKKEAEGY,soluble
11,MAQKISINRGLGLGMAQLGAFARMGMMINVSAMGPQDGHANGGVGEGGIEMSRKSTWRSENDEIKTRKSTAFEPDLDFDMIDFRQPSGSSQYLYGFGFDNNAFGLADGQSDEDSVFM,not soluble
12,MEANILSTHKSKILVFKGWSERQKSVVFIPIEAVLEGHNIEVQFFEKPNEPVTFQVKDKNGNIVFQDMTTPDNLEIYQIDVSGFKTGQYELLYIEKDVTLIGEFEIE,not soluble
13,MSLGGANGKSGLRIWRNARLATMADGVAGLGIVEKGAIATRDGLIIYAGAEASMPALAGPGAETVDCEGRWITPGLIDCHTHLVYAGNRANEFEMRLAGATYEEVARAGGGIVSSVKSLRAANEDELVAQTLPRLDALMAEGVTTVEVKSGYGLDLDNEKKSLRAARRLANERPVTIRTTCLAAHALPPEAKGDKEAFVDLVAGTILPGVAAEKLADAVDGFCEGIAFSPEQIARVFDKARALGLPVKLHADQLSNLHGAALAASYGALSADHLEYTDEAGAAAMAKAGTVATILPGAYYFIRETKKPPVDLFRRHGVKMAVATDSNPGTSPLTSLLLTMNMAATLFGLTVDECLAGVTREAARALGLLDKTGTLEAGKSADLAIWDIERPAELVYRMGFNPLHARIWRGQGSLSAPNTQPAFTIRTAKGIITITTDPNSSSVDKLAAALEHHHHHH,soluble
14,MKLLLIGYGNVGKAFRRLLHEKKDNYPILQGVEIAGIITRQGLMVGDKENFSPDKQLTVLEAIDYINPDVIVDMSVPNYKDGEPSVSAYIKALSRKIHVITVNKAPLALKFREIFEVAEKTGAKIGFQGTVMSGTPSINLFRIQPVAEVSRIRGILNGTTNYILTRIYEGLSFNEALKEAKEKGYAEEDPTLDLNGFDAAAKLTILSNFIMNRSLKLGDFKFKGITEITNEEIRRAKSEGKKIKLIAYADNYVVQVSPQIIGPQDPLYYIDGVENALEIQNEIQRIIIRGPGAGPINAAYGALSDLVLLLEGCL,not soluble
15,MTGRTGGNGSTQAQPERVMLVGVMLDKDGTGSSAARLNGFQTALAEAVELVKAAGGDSVRVETAKRDRPHTALFVGTGKAAELSEAVAADGIDLVVFNHELTPTQERNLEKELKCRVLDRVGLILAIFARRARTQEGRLQVELAQLSHLAGRLIRGYGHLQSQRGGIGMKGPGETKLETDRRLIAHRINALKKQLANLKKQRALRRKSRESGTIKTFALVGYTNVGKSSLFNRLTKSGIYAKDQLFATLDTTARRLYISPECSIILTDTVGFVSDLPHKLISAFSATLEETAQADVLLHVVDAAAPNSGQQIEDVENVLQEIHAGDIPCIKVYNKTDLLPSEEQNTGIWRDAAGKIAAVRISVAENTGIDALREAIAESCAAAPLEHHHHHH,not soluble
16,MLILVSPAKTLDFEQPPLTQIHTRPDFLAQSQELIQVCQQLTPSDIATLMKVSDSIAGLNAARFGEWKPDYSIDNAKQAIFAFRGDVYTGFDADTLTAAQLERTQSQLRILSGLYGLLRPLDLILPYRLEMGTALTNQKGKNLYEFWGNTLTDAVNSAVAAQGDGIIINLASNEYFKAIKPKFLNGQLITPVFKDFKNGQYKVISFFAKRARGMMARYIIDQQVSSIDGLKAFEVDGYYYSEELSKPNEPTFLREAQ,soluble
17,MLNIGYPFWPSMRFKPRPFITPVRFKCLFCLDCCRGRHVYLTVSDIKRLVGSGHDPQKFLTFSIEGGNIRFVLSVREWDLGCIFHDPGTGKCTIHPIRPLICRIYPFMVSKRPLGVEGEEPVQYKGRMLWLYYDESCPGINSQEGEVITPEEIAELGVKFEEELSRTTFEDVIKVLLEHHHHHH,soluble
18,GMDVEIVEELSKMLAGRKAVTEEEIRRKAIRCALKIMGARLVGIDAELIEDVTCSLIDCPITLKSLHFSEKVKIGDVLFYHPHVIKPEKEDFEQAYFEYKQSKKFLDAFDIMREVTDRFFEGYEAEGRYMRKYTKDGRNYYAFFSTIDDTFEDVDIHLRMVDEVDGDYVVIVPTENELNPFLKFFKQYSEDAKRAGLKIWVVNPDEKTIDPFIGYPKDFRLLKGFKNPKAAALVSAYWRVTVTDLD,soluble
19,MGSDKIHHHHHHMKGEETLKKALLNIGKESPFYYYVLLGVKLVPSKNTRNLKLSFSTTGDVMLLYNPEAIGKKPLRMVQALLIHEVMHIVLQHFRIKPKDERDRKIWDLAMDAAINQYIPELAAFGVPLDVLVKEGHTTDNDTLFVLPPEWMMFENAEMYHKWILEEMERLGRYDVEVVAEFRDNVDDHSGLFEEDVPVEMILDLTKDRTKKAFNLFGNTLPSGVRREVSLSLENPELDWKTLLRRFFGVSIKADRYTTPLRPNRRYDHLPGWRNEYLPRIAAVVDTSGSIVEKELNQFISELEKISNIAGEELWLVQVDKSVTSAMKYRSGKWKDLEIVGGGSTDLQPAIDYSERVLRSEGTVVFTDGHTDVPIARRRILFVLSRYHNEEFLKEARKMYGRDAVVVLS,not soluble
20,MGSDKIHHHHHHMSRNRPAPSGDQFDLFLPYVADMPMRDQREMMERPFFSLAKSKRVKPIDYTSPDGKLWVHVSGNPDYGMATIWDADILIYCASVLADMARRGVNDVPRKLHLMPYDLLRAIGRPTTGRAYELLGQALDRLVATTIKTNIRAENRREATFSWLDGWTQLVDEKTERSRGMTIELSNWFWEGVMMKGGVLSIDRAYFDITGGRERWLYKVARKHAGGAGEEGFAISMPVLFEKSGAEGEYRRFKFEILKLAEKNALPGYGLSVETARGGEPMLRMRRVDGKDGADRALPEAGRQGAEARTVASTAPDVSPGKHSSGASETVDVRALIRKTVAGVSDAATRGFMTDETIRHLRETCPGWDLHALHAEFESWVNGDSARLPANWQKAFIGWVKRHHEKNGHALRR,not soluble
21,MSLNRLSIPYSNKSLDYYFFVIQEASVKRAVLARSGEFQATNANFDNTRQLEQWQSLLLSRPSAIISDPIDSQAIVSAIRRYNREKIPVGIIDTPADGGDVAITVSFDNFQGGVMAAEEIVNRLITRYGRPKGTVLNCYGALASVAWRLRKEGMDSVFAKYPGITYLARPTDGQLEKMLSVTLSTLSEYPDLDAVHAPSDSPSRGIVTALQQKGRWKKIGEAGHVIFVNIDGEPIALKWIQDGYMDACISQDPVAYGEIAVDMIVKHALKGEAVPLGTYQDKKYFWESGEGHHHHHH,not soluble
